Measured values published in the supplement of paper PMC10567573.

B1: PCDHGA10 (parent)
chain: FHELQMQVTASDSGDPPLSSNVSL

Variants of: B1
Experiment: protein stability index of a GFP-peptide fusion (GPS, HEK-293T) (PSI 1-6); higher = more stable
Details: c terminus: a fixed tail appended
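Also: lentivirally expressed fusions sorted by FACS into six bins by GFP to DsRed ratio, PSI derived from sequencing read proportions per bin multiplied by bin number.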

Point of comparison: FHELQMQVTASDSGDPPYSSNVSL, protein stability index 2.15. Against it:
- FHELQMQVTASDWGDPPLSSNVSL — lower, 1.6
- FHELQMQVTASDFGDPPLSSNVSL — lower, 1.52
- FHELQMQVTASDNGDPPLSSNVSL — higher, 2.43
- FHELQMQVTASDCGDPPLSSNVSL — higher, 2.43
- FHELQMQVTASDKGDPPLSSNVSL — lower, 2.01
- FHELQMQVTASDIGDPPLSSNVSL — lower, 1.66
- FHELQMQVTASDLGDPPLSSNVSL — lower, 2.13
- FHELQMQVTASDRGDPPLSSNVSL — lower, 2.12
- FHELQMQVTASDTGDPPLSSNVSL — lower, 1.75
- FHELQMQVTASDAGDPPLSSNVSL — lower, 1.82
- FHELQMQVTASDEGDPPLSSNVSL — higher, 2.69
- FHELQMQVTASDGGDPPLSSNVSL — higher, 2.33
- FHELQMQVTASDPGDPPLSSNVSL — lower, 1.71
- FHELQMQVTASDDGDPPLSSNVSL — higher, 2.53
- FHELQMQVTASDYGDPPLSSNVSL — lower, 1.88
- FHELQMQVTASDQGDPPLSSNVSL — the same, 2.15
- FHELQMQVTASDHGDPPLSSNVSL — lower, 2.1
- FHELQMQVTASDVGDPPLSSNVSL — lower, 1.67
- FHELQMQVTASDMGDPPLSSNVSL — lower, 2.08
- FHELQMQVTASDSGDPDLSSNVSL — higher, 2.28
- FHELQMQVTASDSGDPQLSSNVSL — lower, 1.93
- FHELQMQVTASDSGDPCLSSNVSL — lower, 1.56
- FHELQMQVTASDSGDPRLSSNVSL — lower, 1.79
- FHELQMQVTASDSGDPSLSSNVSL — lower, 2.13
- FHELQMQVTASDSGDPMLSSNVSL — higher, 2.38
- FHELQMQVTASDSGDPLLSSNVSL — lower, 1.16
- FHELQMQVTASDSGDPNLSSNVSL — lower, 2.12
- FHELQMQVTASDSGDPVLSSNVSL — lower, 1.78
- FHELQMQVTASDSGDPFLSSNVSL — lower, 1.97
- FHELQMQVTASDSGDPELSSNVSL — higher, 2.28
- FHELQMQVTASDSGDPTLSSNVSL — lower, 1.93
- FHELQMQVTASDSGDPWLSSNVSL — lower, 1.48
- FHELQMQVTASDSGDPILSSNVSL — higher, 2.65
- FHELQMQVTASDSGDPALSSNVSL — higher, 2.29
- FHELQMQVTASDSGDPGLSSNVSL — lower, 2.14
- FHELQMQVTASDSGDPKLSSNVSL — higher, 2.43
- FHELQMQVTASDSGDPYLSSNVSL — lower, 1.52
- FHELQMQVTASDSGDPHLSSNVSL — lower, 1.85
- FHELQMQVTASDSGGPPLSSNVSL — lower, 1.97
- FHELQMQVTASDSGMPPLSSNVSL — lower, 1.91
- FHELQMQVTASDSGHPPLSSNVSL — lower, 1.88
- FHELQMQVTASDSGVPPLSSNVSL — lower, 1.92
- FHELQMQVTASDSGYPPLSSNVSL — lower, 1.42
- FHELQMQVTASDSGQPPLSSNVSL — lower, 2.04
- FHELQMQVTASDSGLPPLSSNVSL — lower, 1.64
- FHELQMQVTASDSGTPPLSSNVSL — lower, 1.8
- FHELQMQVTASDSGAPPLSSNVSL — lower, 2.08
- FHELQMQVTASDSGFPPLSSNVSL — lower, 1.4
- FHELQMQVTASDSGSPPLSSNVSL — lower, 1.67
- FHELQMQVTASDSGCPPLSSNVSL — lower, 1.79
- FHELQMQVTASDSGNPPLSSNVSL — higher, 2.48
- FHELQMQVTASDSGRPPLSSNVSL — higher, 2.18
- FHELQMQVTASDSGIPPLSSNVSL — lower, 1.93
- FHELQMQVTASDSGPPPLSSNVSL — lower, 1.95
- FHELQMQVTASDSGWPPLSSNVSL — higher, 3.09
- FHELQMQVTASDSGEPPLSSNVSL — lower, 1.98
- FHELQMQVTASDSGKPPLSSNVSL — lower, 1.85
- FHELQMQVTASDSGDTPLSSNVSL — lower, 1.99
- FHELQMQVTASDSGDDPLSSNVSL — higher, 2.49
- FHELQMQVTASDSGDWPLSSNVSL — lower, 1.69
- FHELQMQVTASDSGDLPLSSNVSL — lower, 1.57
- FHELQMQVTASDSGDKPLSSNVSL — higher, 2.36
- FHELQMQVTASDSGDGPLSSNVSL — higher, 2.33
- FHELQMQVTASDSGDRPLSSNVSL — higher, 2.19
- FHELQMQVTASDSGDSPLSSNVSL — lower, 2.04
- FHELQMQVTASDSGDNPLSSNVSL — higher, 2.23
- FHELQMQVTASDSGDEPLSSNVSL — higher, 2.54
- FHELQMQVTASDSGDYPLSSNVSL — lower, 1.59
- FHELQMQVTASDSGDCPLSSNVSL — lower, 1.85
- FHELQMQVTASDSGDQPLSSNVSL — lower, 2.08
- FHELQMQVTASDSGDHPLSSNVSL — lower, 2.1
- FHELQMQVTASDSGDMPLSSNVSL — lower, 2.14
- FHELQMQVTASDSGDIPLSSNVSL — lower, 1.7
- FHELQMQVTASDSGDFPLSSNVSL — lower, 1.6
- FHELQMQVTASDSGDAPLSSNVSL — lower, 1.74
- FHELQMQVTASDSGDVPLSSNVSL — higher, 2.21
- FHELQMQVTAWDSGDPPLSSNVSL — higher, 2.59
- FHELQMQVTARDSGDPPLSSNVSL — lower, 1.96
- FHELQMQVTAMDSGDPPLSSNVSL — lower, 1.78
- FHELQMQVTAPDSGDPPLSSNVSL — higher, 2.21
- FHELQMQVTAKDSGDPPLSSNVSL — higher, 2.9
- FHELQMQVTAVDSGDPPLSSNVSL — lower, 1.93
- FHELQMQVTALDSGDPPLSSNVSL — higher, 2.27
- FHELQMQVTAQDSGDPPLSSNVSL — higher, 2.72
- FHELQMQVTAYDSGDPPLSSNVSL — lower, 1.47
- FHELQMQVTATDSGDPPLSSNVSL — higher, 2.4
- FHELQMQVTANDSGDPPLSSNVSL — lower, 2.03
- FHELQMQVTASDSGDPPLSENVSL — higher, 2.75
- FHELQMQVTASDSGDPPLSFNVSL — higher, 2.69
- FHELQMQVTASDSGDPPLSYNVSL — lower, 1.83
- FHELQMQVTASDSGDPPLSANVSL — lower, 1.82
- FHELQMQVTASDSGDPPLSHNVSL — lower, 2.05
- FHELQMQVTASDSGDPPLSCNVSL — lower, 1.62
- FHELQMQVTASDSGDPPLSINVSL — higher, 2.85
- FHELQMQVTASDSGDPPLSQNVSL — lower, 1.98
- FHELQMQVTASDSGDPPLSWNVSL — higher, 3.19
- FHELQMQVTASDSGDPPLSTNVSL — lower, 2
- FHELQMQVTASDSGDPPLSRNVSL — lower, 1.42
- FHELQMQVTASDSGDPPLSDNVSL — higher, 3.06
- FHELQMQVTASDSGDPPLSGNVSL — lower, 1.91
- FHELQMQVTASDSGDPPLSVNVSL — higher, 3.46
- FHELQMQVTASDSGDPPLSKNVSL — lower, 1.85
- FHELQMQVTASDSGDPPLSMNVSL — higher, 2.2
- FHELQMQVTASDSGDPPLSPNVSL — higher, 2.54
- FHELQMQVTASDSGDPPLSLNVSL — higher, 2.69
- FHELQMQVTASDSGDPPLSNNVSL — higher, 2.47
- FHELQMQVTASDSGDPPLWSNVSL — higher, 2.45
- FHELQMQVTASDSGDPPLRSNVSL — lower, 2.02
- FHELQMQVTASDSGDPPLASNVSL — higher, 2.17
- FHELQMQVTASDSGDPPLDSNVSL — higher, 3.07
- FHELQMQVTASDSGDPPLTSNVSL — lower, 2.02
- FHELQMQVTASDSGDPPLFSNVSL — lower, 2.07
- FHELQMQVTASDSGDPPLYSNVSL — lower, 1.94
- FHELQMQVTASDSGDPPLGSNVSL — lower, 2
- FHELQMQVTASDSGDPPLPSNVSL — higher, 2.2
- FHELQMQVTASDSGDPPLESNVSL — higher, 3.04
- FHELQMQVTASDSGDPPLQSNVSL — higher, 2.36
- FHELQMQVTASDSGDPPLISNVSL — lower, 1.66
- FHELQMQVTASDSGDPPLKSNVSL — lower, 2.11
- FHELQMQVTASDSGDPPLNSNVSL — higher, 2.39
- FHELQMQVTASDSGDPPLLSNVSL — lower, 1.85
- FHELQMQVTASDSGDPPLHSNVSL — lower, 1.81
- FHELQMQVTASDSGDPPLVSNVSL — lower, 1.57
- FHELQMQVTASDSGDPPLCSNVSL — lower, 1.93
- FHELQMQVTASDSGDPPLMSNVSL — higher, 2.36
- FHELQMQVTASDSGDPPGSSNVSL — higher, 3.05
- FHELQMQVTASDSGDPPASSNVSL — higher, 2.5
- FHELQMQVTASDSGDPPISSNVSL — higher, 2.33
- FHELQMQVTASDSGDPPWSSNVSL — higher, 2.3
- FHELQMQVTASDSGDPPVSSNVSL — higher, 2.43
- FHELQMQVTASDSGDPPKSSNVSL — higher, 2.31
- FHELQMQVTASDSGDPPSSSNVSL — higher, 3.29
- FHELQMQVTASDSGDPPMSSNVSL — higher, 2.31
- FHELQMQVTASDSGDPPTSSNVSL — higher, 2.74
- FHELQMQVTASDSGDPPCSSNVSL — higher, 2.39
- FHELQMQVTASDSGDPPFSSNVSL — higher, 2.56
- FHELQMQVTASDSGDPPPSSNVSL — higher, 3.02
- FHELQMQVTASDSGDPPRSSNVSL — higher, 2.42
- FHELQMQVTASDSGDPPQSSNVSL — higher, 3
- FHELQMQVTASDSGDPPDSSNVSL — higher, 3.51
- FHELQMQVTASDSGDPPESSNVSL — higher, 2.53
- FHELQMQVTASDSGDPPNSSNVSL — higher, 2.34
- FHELQMQVTASDSGDPPHSSNVSL — higher, 3.04
- FHELQMQVTASPSGDPPLSSNVSL — lower, 1.89
- FHELQMQVTASVSGDPPLSSNVSL — lower, 1.73
- FHELQMQVTASFSGDPPLSSNVSL — higher, 2.47
- FHELQMQVTASMSGDPPLSSNVSL — higher, 3
- FHELQMQVTASRSGDPPLSSNVSL — lower, 1.82
- FHELQMQVTASESGDPPLSSNVSL — higher, 2.23
- FHELQMQVTASTSGDPPLSSNVSL — lower, 1.86
- FHELQMQVTASQSGDPPLSSNVSL — lower, 1.89
- FHELQMQVTASYSGDPPLSSNVSL — higher, 2.54
- FHELQMQVTASISGDPPLSSNVSL — lower, 2.07
- FHELQMQVTASASGDPPLSSNVSL — lower, 1.46
- FHELQMQVTASNSGDPPLSSNVSL — higher, 2.92
- FHELQMQVTASGSGDPPLSSNVSL — lower, 2.14
- FHELQMQVTASLSGDPPLSSNVSL — lower, 1.73
- FHELQMQVTASSSGDPPLSSNVSL — the same, 2.15
- FHELQMQVTASWSGDPPLSSNVSL — lower, 1.81
- FHELQMQVTASCSGDPPLSSNVSL — lower, 1.98
- FHELQMQVTASKSGDPPLSSNVSL — higher, 2.35
- FHELQMQVTASHSGDPPLSSNVSL — lower, 1.88
- FHELQMQVTASDSGDPPLSSDVSL — higher, 2.5
- FHELQMQVTASDSGDPPLSSCVSL — lower, 2.09
- FHELQMQVTASDSGDPPLSSEVSL — higher, 2.61
- FHELQMQVTASDSGDPPLSSGVSL — higher, 2.24
- FHELQMQVTASDSGDPPLSSAVSL — higher, 2.25
- FHELQMQVTASDSGDPPLSSFVSL — lower, 1.54
- FHELQMQVTASDSCDPPLSSNVSL — higher, 2.44
- FHELQMQVTASDSPDPPLSSNVSL — higher, 3.16
- FHELQMQVTASDSDDPPLSSNVSL — higher, 2.6
- FHELQMQVTASDSLDPPLSSNVSL — lower, 2.11
- FHELQMQVTASDSQDPPLSSNVSL — lower, 1.62
- FHELQMQVTASDSNDPPLSSNVSL — higher, 2.27
- FHELQMQVTASDSHDPPLSSNVSL — higher, 2.54
- FHELQMQVTASDSSDPPLSSNVSL — higher, 2.34
- FHELQMQVTASDSRDPPLSSNVSL — higher, 2.21
- FHELQMQVTASDSWDPPLSSNVSL — lower, 2.11
- FHELQMQVTASDSMDPPLSSNVSL — lower, 2.09
- FHELQMQVTASDSYDPPLSSNVSL — lower, 1.94
- FHELQMQVTASDSEDPPLSSNVSL — higher, 2.98
- FHELQMQVTASDSIDPPLSSNVSL — lower, 2.12
- FHELQMQVTASDSKDPPLSSNVSL — higher, 2.31
- FHELQMQVTASDSFDPPLSSNVSL — lower, 1.82
- FHELQMQVTASDSVDPPLSSNVSL — higher, 2.59
- FHELQMQVTASDSTDPPLSSNVSL — higher, 2.31
- FHELQMQVTASDSADPPLSSNVSL — higher, 2.33
